Measured values reported in the DeepSol protein solubility set.

assay: soluble on expression in E. coli; label from the status in PepcDB or PDB records

**Q.** Which “soluble on expression in E. coli” value does the source give for “MTKTTILLLCGGGSSEHEISLVSANYIQQQLELTPEFHVIRVEMKKEGWFSEQGALVYLDTNSATLNSDKASYPIDFVVPCIHGFPGETGDIQSMLELAGIPYLGCGPEASANSFNKITSKLWYDALDIPNTPYLFLTQNTPSSIDKAKQAFGHWGSIFVKAARQGSSVGCYKVTTEDQIAPAIEAAFGFSEQVLVEQAVKPRELEVSAYEMNGKLYISKPGEVIAPEGTFYSYEEKYSANSHARTVLEAENLTEKHKELIQTYAERVFIHMKLRHLSRIDFFLTQEGQIYLNEVNTFPGMTPISMFPKMLEHNGHRFSEFLVQCVTNTLVNAK” here?
**A.** not soluble

**Q.** For “MGSDKIHHHHHHMFKRKVISFDIGSKNIKLVEGKCDGDKVIVTNMDMIETPKNSMNDGSIVDINLIAEAVRKLIDKVSTRTKNVVFTSQSTSIITRTVEIPWAKEKDMKSMIKYDIEQYLPIDLNEYIIKHKVIDEFQKEEVKMVRANVVVYPKKMAKAYWSLVEELELKPMALEVSLSAMEKILSSKDIITINEKDYQKEDTIAIVDIGSDEIEMNIIANGNLEFTRVLMGGGAYIDSSISNELSVDMDVAEEKKIIFGDLTLDNFSGEKQIVNEAMKNVIDRWNSEILRMLDYFKNKNKDKQIKKVYVHGGTSQIPGLCQYMKNSLGISVELIKNISTVSLDKKLEDKDITNYINAIGSIIM”, which “soluble on expression in E. coli” value is on record?
**A.** not soluble

**Q.** Which “soluble on expression in E. coli” value does the source give for “MGSDKIHHHHHHMIMINKTKRLMVSRQVKIPRKTYFWGPTPNPGMHPKDQSVTLLSIIRDYLKLSDKEREAARILANGLVKVDGKTVREKKFAVGFMDVIEINGESYRVVYNDQGALVLMKETKERASMKLLKVRSKVIAPGNRIQLGTHDGRTFITDDKSKKVGDVWAVSVPDMKISEIIKMQPGNKAYITAGSHVNQTGTISKIEAKEGSSANLVHFQEGFSTIKDHVFMIGSSKFSFVLSPEEVIP” here?
**A.** not soluble

**Q.** For “MTTRRLALFDLDHTLLPLDSDYQWADFLARTGRAGDPAEARRRNDDLMERYNRGELTAEQAAEFMLGLLAAHSPVELAAWHEEFMRDVIRPSLTVQAVDVVRGHLAAGDLCALVTATNSFVTAPIARAFGVQHLIATDPEYRDGRYTGRIEGTPSFREGKVVRVNQWLAGMGLALGDFAESYFYSDSVNDVPLLEAVTRPIAANPSPGLREIAQARGWQVIDLFDHLEDAKS”, which “soluble on expression in E. coli” value is on record?
**A.** soluble

**Q.** For “KKNLLYLGLTGYLLFALCTRLQAQTDSLQAHRYVTRATMYGVGFTNVFDTYLSPQEYKGIDFRISRETIRMTKLFDGNVSVQNFFQADVGYTHNRADNNNTFSGLVNWNYGLHYQFRLTENFKLLAGGLFDVNGGFVYNLRNSNNPASARAYVNLDASGMAIWHLKIKRYPMVLRYQVNVPMIGLMFSPHYGQSYYEIFSLGNSSGVIQFTSLHNQPSLRQMLSVDLPIGYTKMRFSYLADLQQSNVNGIKTHTYSHVFMVGFVKDLYRVSNKKGANLPPSVRAY”, which “soluble on expression in E. coli” value is on record?
**A.** not soluble

**Q.** With “MKAVIVYASVHHGNTKKIAEAMASVISADVIDVTRKIKPDLSGYDVIGFASGVYFHTFHERIKKCIEENLFSKGQKVFLVATCGLGYRDYTKGIKDILAKKHVSFIGNFQCRGWDTYGIFGKIGGIAKKHPNDRDLKEAQQFVLKTVCEKTIDDVALLEHHHHHH” as the sequence, how does the “soluble on expression in E. coli” value read?
**A.** soluble

**Q.** With “MSSCVNTSQTGPKKKISFIIRDEHEYSNRSAVSALQYDAQNGRLFTGGSDTIIRTWSVPHHKDAFSARGGVRSPGKNSPVQYQGSLEQHTDWVNDMILCGHGKILISASNDTTVKVWNIERDNKHGFIDCIRTHKDYVSCLAYAPIVEKAVSASFDHNIFVYDINANFKTVNNLIGCKDSIYSLATTPNLSLVLGAGTEKCIRLFDPRTNEKIMKLRGHTDNVRALVVNDDGTRALSAGSDATIRLWDIGQQRCIATCIAHEEGVWTLQVDSSFTTVYSAGKDKMVVKTPLYDFTKSQLLFKEEAPVKKLLLSEKDNPVSLWVGTWKSDIKRWSIRPSAQLSIGGDEDGPSTSNANHSVSASSSPPVTFKYIRVKDQKGQQSTPELVIPGAPAIKKHAMLSDKRHVLTRDSDGNVALYDVLAARKIKDYGKRIFEEVVDENSRQVYIPSWFVVDSKSGMLQITLDELDALSSWLSSKDAGFDDNDRETKLNYGGMMLRSLFERWPPCKMTNVDAADADDVQKATLNFISLPEHTPLIICEGNGRPLYRLLVGDAGKEFEANELAQIAPMWVIDAIERNQLPKFNKMPFYLLPHPSTNPKQPKKDRLSATEMLQVKKVMEHVYEKILSTNDDITVGSIPLNQIHTKMEMYCNDQRLEPDMDLRTVKHLYWKQSGELLLHYKPVK” as the sequence, how does the “soluble on expression in E. coli” value read?
**A.** not soluble

**Q.** With “GPGSMFTPSTRFLCSARPLLWFGRRGVFAAPHPEKAKTGGEDAFVVHTSGIGVADGVGGYASYGVDPGVYTRNVMKHTLRALQEDDNRGTIGALQALTYGYTEAQKLKQPGGCPVTLVTLLDGRFASVLNLGDCGTICLRSSKLFFATEPQQHSFNCPYQLPEDPPSVGDRTTLEVSEGDVFLCASDGLLDNVDMSDILRHLDAVNRDGCQRVAENLVACACRNGANKGFDSPFAKQARAVGYHYMGGKQDDVTVVVAQLTRGTVAPDDCPSLITELLDVHKT” as the sequence, how does the “soluble on expression in E. coli” value read?
**A.** not soluble

**Q.** For “MHPRFQTAFAQLADNLQSALAPILADHHFPAMLTAEQVSTLKNTAGLDEDALAFALLPLAAACARTDLSHFNVGAIARGVSGNWYFGANMEFLGATMQQTVHAEQSAISHAWLRGEKGLAAVTVNYTPCGHCRQFMNELNSGLDLRIHLPGRAPHTLRDYLPDAFGPKDLEIKTLLMDEQDHGFTLTGDTLTQAAITAANKSHMPYSHSPSGVALECKDGRIFTGSYAENAAFNPTLPPLQGALNLLSLNGYDYADIQRAILAEKGDAALIQWDATAATLKALGCHNIDRVLLG”, which “soluble on expression in E. coli” value is on record?
**A.** not soluble

**Q.** For “MGSDKIHHHHHHMNNIQAIRKKVETQIDDLQNKTDEIAEFNQAKVLDAFQENKVSDFHFHPSTGYGYDDEGRDTLERVYATVFKTEAALVRPQIISGTHAISTVLFGILRPDDELLYITGQPYDTLEEIVGIRKQGQGSLKDFHIGYSSVPLLENGDVDFPRIAKKMTPKTKMIGIQRSRGYADRPSFTIEKIKEMIVFVKNINPEVIVFVDNCYGEFVEYQEPPEVGADIIAGSLIKNPGGGLAKTGGYIAGKEALVDLCGYRLTTPGIGREAGASLYSLLEMYQGFFLAPHVTAQAIKGARFTAAMLAEFGVEADPVWDAPRTDLIQSVSFHNKEKMVAFAQAIQAASPVNAHVLPIGAYMPGYEDDVIMAAGTFIQGASLELTADGPIREPYQLYVQGGLTYEHIKIAVTRAIQKIV”, which “soluble on expression in E. coli” value is on record?
**A.** not soluble

**Q.** For “MVFCGDDVATGVRDAITYCYRCKGRKVTLSDHEADDDNKPIGDFDYDHEVVVFEIRSRAMEKLRKKRRTGMEGLTYKFVKEYDIENEFCSVRSSFSECCMSDISIEGYMTAKTEFSRSSSLKGLELENQWKMHYVNEIKKGSVIQEFCHCQGWPFGLGRKAALLPPLPKSPAESWSWRKPTRVTPVPFV”, which “soluble on expression in E. coli” value is on record?
**A.** soluble

**Q.** For “MRGSHHHHHHTDPALRAPKSVIIPAGSSAPLAPFVPGTLADGVVYVSGTLAFDQHNNVLFADDPKAQTRHVLETIRKVIETAGGTMADVTFNSIFITDWKNYAAINEIYAEFFPGDKPARFCIQCGLVKPDALVEIATIAHIAKGLCGR”, which “soluble on expression in E. coli” value is on record?
**A.** soluble

**Q.** With “MTVETFHPKQTTTLETPAKTLEAASADSVNTGNVATGNRIGFVSLGCPKNLVDSERILTQLRIDGYEVTNSYDNADLVIVNTCGFIDAAVEESLDAVREALEENGKVIVTGCLGAKENQIREVHPDVLEITGPHSYEAVLKHVHKYVPKPEHNPFTSLIPQTGVKLTPKHYAYLKISEGCDNRCTFCIIPALRGDLDSRGAGSVLDEAKRLVEAGVQEILVVSQDTSAYGKDKGGRTDFWNGMPVKQDITSLARQLGKMGAWVRLHYIYPYPWVDDLIPLMAEGLILPYLDIPMQHASPRILKMMKRPGRVDRQLEAIQRWREICPDLVIRSTFIVGFPGETEEDFEMLLDFLREARLDRVGCFKYSEVEGAVANTIAELISEEVKEDRYHRFMEVQAEISAERLARFVGRTMDILIDDVDEEGAIGRSFADAPEIDGMVFINGETELEPGMLVRAVITHSDEHDLWAELVDADAEDEVEALEHHHHHH” as the sequence, how does the “soluble on expression in E. coli” value read?
**A.** soluble

**Q.** Which “soluble on expression in E. coli” value does the source give for “GAMESHPHIQLLKSNRELLVTHIRNTQCLVDNLLKNDYFSAEDAEIVCACPTQPDKVRKILDLVQSKGEEVSEFFLYLLQQLADAYVDLRPWLLEIGFSPSLLTQSKVVVNTDPVSRYTQQLRHHLG” here?
**A.** soluble

**Q.** Which “soluble on expression in E. coli” value does the source give for “MGSDKIHHHHHHMIFDGYEAYRAANFKPKVCILGSGPAGTTIARKLGAAGIPVVVLEAGSREFSDESQDFYRGTKVGDFYFDLDITRLRYMGGSSNHWAGWCRVLDKLDFEPKAWAPDTGWPIRRADIEPYLTEVRDILELPDFRPDVPISDDIRWVQLIKSPAVRFAEKFADELDKSGNIAVVLNTYATELAGDGKRVTGAKLWSNGQDAGAFSADYFIVCTGGLENSRLLLWSNQRSNGGVVPNATALGRYWMEHPTFEGGNAILADYGEFEVDAVNEAFFSPTLAAMERLRIMNFGIRLIETPYAGVKHVIADLACTAPDMAEWVAYQLSQNLRCAAQLYVAWEQAPLASNQIELSKTDVDHAGVPRIELHWKKSELERRTLVEGLKLFGTTLIEKDLGRVRLMDWIANGEDYPTDEETAGHHHMGGTRMGIDMTRSVVDANCKVHGMDNLYVGGSSVFCTSGQANPTTTITALACRLGEHLSKVVAV” here?
**A.** not soluble

**Q.** For “MAHHHHHHMGTLEAQTQGPGSMFELSDLPYEGLEPYISSHLLDRHYNGHHKTYVDVLNKLVVGTEFEGLGNESLGDIVVKAHNSGSAGRAIFNNAAQIWNHDFYWQSMKPNGGGNPPEKLREMIEHSFGSVEGFNNAFTTSGLGQFGSGWVWLVYDEDAKALKVVSTANADSPLLTQGQLPLATMDVWEHAYYLDYLNLRKKYIDVFLEHLLNWDFVLGRLEDAGVL”, which “soluble on expression in E. coli” value is on record?
**A.** soluble

**Q.** With “MGSDKIHHHHHHLAGERENWFVSIPPRRGSVLDVRGRKIVYDSPEYVAYLDVDFFKRQNGDIKALEKTLQNCGITKSAEEVMEYKFFKLTEGEDKVDVLKKIESELLPFVNIELVYTRKKIQDYATGILLGTVIDGTGKGGIEGFFDDQLQGKRKGFLELRYRGARLSPTLVNYSPPENGKDVWLSLDLDLQRRVYDIISKAVEGNSAEAGHVIVMESKTGRILSMVTTRNWNDLIGGYIEPGSTIKPLVYAIALETHSASPDFTVECEGSIKPVEQLPVIIRDIEKHGLVDFSAGIVKSCNVMSVKVGELITEKTGVEGFYEWLRKVGFGEKTGIEMEGEIAGVLREPKKWSLIDPAEISIGQGIGVTPVQLIASLNIFANDGYWVKPTILKDSPVKKRRVFSKETTDVIRQAMVRVVEEGTGKLAQVKGIAIAGKTGTAQKAVGGEYRNLYHSLFVGFFPAEDPKYTILVHLDSPSGAFYGGEVAAPVFREIVEILTEKEDGRIRIVKGLMPDLRGLPVRDALLVLESLGVKDVEIKGKGWKVSEQTPPPNHPLEGPVILFLSDQK” as the sequence, how does the “soluble on expression in E. coli” value read?
**A.** not soluble

**Q.** With “MSLTARIGVVTFPGSLDDRDTQRAIKLAGAEPVALWHKDKDLKQVDAVVLPGGFSYGDYLRAGAISRFSPVMETVIEQAKSGMPVLGICNGFQILTEAHLLPGAMLGNNHLHFICRDQKLRVENADTAWTSDYEAGQEIHIPLKNMDGRYVADERTLDMLEAEGRVAFRYVVGGAAADGYGNPNGSLRDIAGITNEAGNVVGLMPHPEHAVEPLIGTGRTDGLPFFTSILKKLVNAEGHHHHHH” as the sequence, how does the “soluble on expression in E. coli” value read?
**A.** soluble

**Q.** With “MSSFSESALEKKLSELSNSQHSVQTLSLWLIHHRKHAGPIVSVWHRELRKAKSNRKLTFLYLANDVIQNSKRKGPEFTREFESVLVDAFSHVAREADEGCKKPLERLLNIWQERSVYGGEFIQQLKLSMEDSKSPPPKATEEKKSLKRTFQQIQEEEDDDYPGSYSPQDPSAGPLLTEELIKALQDLENAASGDATVRQKIASLPQEVQDVSLLEKITDKEAAERLSKTVDEACLLLAEYNGRLAAELEDRRQLARMLVEYTQNQKDVLSEKEKKLEEYKQKLARVTQVRKELKSHIQSLPDLSLLPNVTGGLAPLPSAGDLFSTD” as the sequence, how does the “soluble on expression in E. coli” value read?
**A.** soluble
